The results in this text go back to patent US20200157151A1, “PEPTIDE COMPOUNDS, CONJUGATE COMPOUNDS AND USES THEREOF FOR TREATING INFLAMMATORY DISEASES” (TRANSFERT PLUS, S.E.C., priority 2017, published 2020).

Square brackets hold non-standard residues; d marks the D form. Ends that are not written are not given here. Nle = CCCC[C@H](N)C(=O)O

The assay addresses Human recombinant Sortilin chimera protein from R&D Systems (#3154-ST) (human), Q99523. The experiment in a line: SPR (Biacore), Sortilin immobilized on CM5 chip, peptide injected.

One may read the Kd as the concentration at which binding is half-saturated.

Chain of Human recombinant Sortilin chimera protein from R&D Systems (#3154-ST) (human), Q99523 (Q99523 78-755, change not shown): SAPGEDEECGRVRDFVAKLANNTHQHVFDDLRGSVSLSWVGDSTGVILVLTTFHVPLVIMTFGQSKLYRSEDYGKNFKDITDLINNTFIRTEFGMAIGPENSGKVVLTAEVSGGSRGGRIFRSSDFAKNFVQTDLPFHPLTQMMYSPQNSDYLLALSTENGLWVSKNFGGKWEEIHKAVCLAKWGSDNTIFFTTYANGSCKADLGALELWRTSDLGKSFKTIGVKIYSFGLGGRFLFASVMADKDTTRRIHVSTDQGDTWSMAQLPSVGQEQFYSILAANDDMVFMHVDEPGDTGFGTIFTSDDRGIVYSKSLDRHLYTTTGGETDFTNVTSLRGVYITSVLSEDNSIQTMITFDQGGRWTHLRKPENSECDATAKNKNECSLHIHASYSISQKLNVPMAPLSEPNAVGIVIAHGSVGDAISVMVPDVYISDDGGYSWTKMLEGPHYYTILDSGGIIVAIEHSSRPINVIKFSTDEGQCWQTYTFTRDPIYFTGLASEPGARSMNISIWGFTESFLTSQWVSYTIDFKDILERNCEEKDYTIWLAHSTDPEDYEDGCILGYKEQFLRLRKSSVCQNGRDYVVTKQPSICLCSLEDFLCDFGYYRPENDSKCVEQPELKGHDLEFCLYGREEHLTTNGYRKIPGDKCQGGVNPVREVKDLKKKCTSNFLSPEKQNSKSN

Consider YKSLRRKAPRWDAPLRDPALRQLL (modifications not checked) [KBP-201], for which the Kd amounted to 3.3 nM.

Ac-GVRAKAGVRN[Nle]FKSESY [KBP-106]: the dissociation constant Kd is 46 nM.
